Measured values published in article PMC4040282 (Physical chemistry chemical physics : PCCP, 2014).
Where a chain is given by its changes, count along the chain named. Numbers in names are those of the source. Like-named read-outs stand apart in the source and are kept apart here.

B1: Human wild-type IκBα(67-287) (domain or fragment, UniProt P25963 67-287, looked up)
chain: KQQLTEDGDSFLHLAIIHEEKALTMEVIRQVKGDLAFLNFQNNLQQTPLHLAVITNQPEIAEALLGAGCDPELRDFRGNTPLHLACEQGCLASVGVLTQSCTTPHLHSILKATNYNGHTCLHLASIHGYLGIVELLVSLGADVNAQEPCNGRTALHLAVDLQNPDLVSLLLKCGADVNRVTYQGYSPYQLTWGRPSTRIQQQLGQLTLENLQMLPESEDEE
B2: IκBα(67-287) E282W (domain or fragment, human, UniProt P25963 67-287, looked up)
chain: B1 chain with E216W
B3: IκBα(67-287) P261F (domain or fragment, human, UniProt P25963 67-287, looked up)
chain: B1 chain with P195F

Tests used:
[1] = biological target: (p50(248-350)/RelA(190-321)) heterodimer, biotinylated (murine, UniProt P25799 248-350; Q04207 190-321, biotin PEO maleimide (on the added N-terminal cysteine)); assay: SPR
[2] = biological target: T1, N-terminal hexahistidine-NFκB (His6-p50(39-350)/RelA(19-321)) heterodimer (UniProt P25799 39-350; Q04207 19-321); assay: stopped-flow fluorescence
[3] = biological target: T1, N-terminal hexahistidine-NFκB …; assay: stopped-flow fluorescence; remark: listed apart in the source

Binder | Kd [1] [nM] | kon [2] [M⁻¹ s⁻¹] | kon [3] [M⁻¹ s⁻¹]
B1 | 0.172 ± 0.004 | 1.4e+07 | –
B2 | 0.155 ± 0.014 | 1.1e+07 | 3.8e+06
B3 | 0.462 ± 0.008 | 1.4e+07 | –
